Measured values taken from article PMC5986797 (2018).

B1: recombinant human syndecan-1 (protein)
chain: QIVATNLPPEDQDGSGDDSDNFSGSGAGALQDITLSQQTPSTWKDTQLLTAIPTSPEPTGLEATAASTSTLPAGEGPKEGEAVVLPEVEPGLTAREQEATPRPRETTQLPTTHLASTTTATTAQEPATSHPHRDMQPGHHETSTPAGPSQADLHTPHTEDGGPSATERAAEDGASSQLPAAEGSGEQDFTFETSGENTAVVAVEPDRRNQSPVDQGATGASQGLLDRKEVLG
B2: recombinant human syndecan-4 (protein)
chain: ESIRETEVIDPQDLLEGRYFSGALPDDEDVVGPGQESDDFELSGSGDLDDLEDSMIGPEVVHPLVPLDNHIPERAGSGSQVPTEPKKLEENEVIPKRISPVEESEDVSNKVSMSSTVQGSNIFERTE
B3: recombinant human syndecan-2 (protein)
chain: ESRAELTSDKDMYLDNSSIEEASGVYPIDDDDYASASGSGADEDVESPELTTSRPLPKILLTSAAPKVETTTLNIQNKIPAQTKSPEETDKEKVHLSDSERKMDPAEEDTNVYTEKHSDSLFKRTE

Biological target: T1, laminin peptide LAMA4_(1408–1434) (Homo sapiens (Human), UniProt Q16363)
T1 chain: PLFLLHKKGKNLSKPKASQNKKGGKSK
Test: ELISA
B1: binds. B2: binds. B3: binds.

Biological target: T2, laminin peptide LAMA3_(3043–3067) (Homo sapiens (Human), UniProt Q16787)
T2 chain: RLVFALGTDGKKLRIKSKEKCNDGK
Test: ELISA
B1: binds. B2: binds. B3: binds.

Biological target: T3, laminin peptide LAMA5_(3417–3436) (Homo sapiens (Human), UniProt O15230)
T3 chain: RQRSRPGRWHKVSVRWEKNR
Test: ELISA
B1: binds. B2: binds. B3: binds.

Biological target: T4, laminin peptide LAMA5_(3539–3550) (Homo sapiens (Human), UniProt O15230)
T4 chain: TLPDVGLELEVR
Test: ELISA
B1: no binding. B2: no binding. B3: no binding.

Biological target: T5, laminin peptide LAMA5_(3300–3330) (Homo sapiens (Human), UniProt O15230)
T5 chain: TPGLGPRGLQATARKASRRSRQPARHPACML
Test: ELISA
B1: binds. B2: binds. B3: binds.

Biological target: T6, laminin peptide LAMA4_(1521–1543) (Homo sapiens (Human), UniProt Q16363)
T6 chain: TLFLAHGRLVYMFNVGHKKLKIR
Test: ELISA
B1: binds. B2: binds. B3: binds.
